In paper PMC12511567, “UBE2J2 sensitizes the ERAD ubiquitination cascade to changes in membrane lipid saturation” (Nature Communications, 2025):

Assays:
[1] = target: ubiquitin-activating enzyme E1 (yeast Uba1) (yeast, UniProt P22515 1-1024); assay: cross-linking; UBE2J2 proteoliposomes (10% or 60% SFAs, P/L = 1:32,000) incubated with E1 ± BMOE; with or without pre-incubation with low OG; SDS-PAGE and fluorescence scanning; settings: both partners purified
[2] = target: the molecule itself; assay: FRET or BRET; donor UBE2J2_(A488) and acceptor UBE2J2_(A594) co-reconstituted in liposomes with 10% or 60% SFAs (P/L = 1:20,000 and 1:5000); 37 °C; 20 mM HEPES/KOH pH 7.4, 150 mM KCl, 5 mM magnesium acetate, 0.1 mM TCEP, 0.2 mg/mL BSA; excitation 480 nm, I614/I516

Chain of ubiquitin-activating enzyme E1 (yeast Uba1) (P22515 whole entry): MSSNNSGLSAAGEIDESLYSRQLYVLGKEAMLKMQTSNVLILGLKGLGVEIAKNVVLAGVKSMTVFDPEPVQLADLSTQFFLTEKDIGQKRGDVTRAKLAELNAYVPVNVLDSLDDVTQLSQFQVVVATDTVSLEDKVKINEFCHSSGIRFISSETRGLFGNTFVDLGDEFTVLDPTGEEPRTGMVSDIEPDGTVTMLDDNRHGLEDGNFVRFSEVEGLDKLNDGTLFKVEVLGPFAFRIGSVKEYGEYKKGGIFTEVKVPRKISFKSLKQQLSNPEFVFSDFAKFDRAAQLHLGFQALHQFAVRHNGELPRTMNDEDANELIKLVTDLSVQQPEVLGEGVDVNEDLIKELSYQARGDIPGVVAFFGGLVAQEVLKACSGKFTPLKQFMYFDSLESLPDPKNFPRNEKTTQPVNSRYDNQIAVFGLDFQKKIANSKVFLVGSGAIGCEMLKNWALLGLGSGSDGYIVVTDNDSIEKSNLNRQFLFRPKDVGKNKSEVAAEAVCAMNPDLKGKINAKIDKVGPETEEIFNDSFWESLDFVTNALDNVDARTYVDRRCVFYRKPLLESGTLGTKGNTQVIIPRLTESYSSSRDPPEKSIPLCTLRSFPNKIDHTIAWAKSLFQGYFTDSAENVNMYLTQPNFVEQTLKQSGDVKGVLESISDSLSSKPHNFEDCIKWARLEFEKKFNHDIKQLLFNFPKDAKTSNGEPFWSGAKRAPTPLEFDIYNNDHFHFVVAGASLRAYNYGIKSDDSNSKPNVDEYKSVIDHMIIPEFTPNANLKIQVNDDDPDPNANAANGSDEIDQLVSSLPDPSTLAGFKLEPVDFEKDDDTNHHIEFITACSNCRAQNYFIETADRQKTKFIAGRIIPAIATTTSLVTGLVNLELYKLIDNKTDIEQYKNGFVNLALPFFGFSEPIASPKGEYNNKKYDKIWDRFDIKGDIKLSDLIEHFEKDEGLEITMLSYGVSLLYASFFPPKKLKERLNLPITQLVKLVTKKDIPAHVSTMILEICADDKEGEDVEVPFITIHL

B1: UBE2J2 (full-length, membrane-anchored, fluorescently labeled, reconstituted in liposomes) (enzyme, human, UniProt Q8N2K1 1-259, looked up)
chain: MSSTSSKRAPTTATQRLKQDYLRIKKDPVPYICAEPLPSNILEWHYVVRGPEMTPYEGGYYHGKLIFPREFPFKPPSIYMITPNGRFKCNTRLCLSITDFHPDTWNPAWSVSTILTGLLSFMVEKGPTLGSIETSDFTKRQLAVQSLAFNLKDKVFCELFPEVVEEIKQKQKAQDELSSRPQTLPLPDVVPDGETHLVQNGIQLLNGHAPGAVPNLAGLQQANRHHGLLGGALANLFVIVGFAAFAYTVKYVLRSIAQE
modifications: fluorescent label at the C-terminus by sortase A (fluorophore-conjugated GGC peptide): DL680; Alexa Fluor 488 or Alexa Fluor 594 in the FRET assay
notes: UBE2J2, human, ubiquitin-conjugating enzyme E2 J2 with C-terminal transmembrane segment; The same construct carries different C-terminal dyes in different experiments; also called UBE2J2_(DL680); UBE2J2_(A488)
- binding result [1]: binds
- binding result [2]: binds

B2: UBE2J2^F137E (membrane-anchored, reconstituted in liposomes) (enzyme, human, UniProt Q8N2K1 1-259, looked up)
chain: MSSTSSKRAPTTATQRLKQDYLRIKKDPVPYICAEPLPSNILEWHYVVRGPEMTPYEGGYYHGKLIFPREFPFKPPSIYMITPNGRFKCNTRLCLSITDFHPDTWNPAWSVSTILTGLLSFMVEKGPTLGSIETSDETKRQLAVQSLAFNLKDKVFCELFPEVVEEIKQKQKAQDELSSRPQTLPLPDVVPDGETHLVQNGIQLLNGHAPGAVPNLAGLQQANRHHGLLGGALANLFVIVGFAAFAYTVKYVLRSIAQE
modifications: fluorescently labeled (UBE2J2 variants were fluorescently labeled after affinity purification)
notes: UBE2J2, human, with F137E; also called UBE2J2 F137E mutant
- binding result [1]: binds
